Assay results: the nanobody polyreactivity screen of Harvey et al. (2022)

assay: yeast display, Sf9 membrane polyspecificity reagent, FACS + sequencing; frameworks hold sequencing errors
In short: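 In a synthetic yeast display library (Saccharomyces cerevisiae BJ5465), nanobody expression was induced with galactose for 36–48 hours. FACS gates were set low and high (top ~1%) using anti-HA fluorescence for expression and streptavidin fluorescence for binding of the Sf9 membrane reagent. Each polyreactivity label is drawn from the gate of origin.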

Sequence | polyreactivity (PSR sort gate)
QVQLVESGGGLVQAGGSLRLSCAASGSTFWKYAMGWYRQAPGKERELVARISRNGGSTYYADSVKGRFTISRDNAKNTVYLQMNSLKPEDTAVYYCATAYVHYVYKYDYWGQGTQVTVSS | high polyreactivity
QVQLVESGGGLVQAGGSLRLSCAASGSTFWLNAMGWYRQAPGKEREFVAAITWSSGSTYYADSVKGRFTISRDNAKNTVYLQMNSLKPEDTAVYYCAADGRYVRIRGDYWGQGTQVTVSS | low polyreactivity
QVQLVESGGGLVQAGGSLRLSCAASGSTFWLYAMGWYREAPGKERELVATISERGGSTYYADSVKGRFTISRDYAKNTVYFQMNSLKPEDTAVYYCAADQFHYPRGRRYDYWGQGTQVTVSS | low polyreactivity
QVQLVESGGGLVQAGGSLRLSCAASGSTFWLYAMGWYRQAPGKEREFVATISSSTTYYADSVKGRFTISRDNAKNTVYFQMNSLKPQDTAVYYCNAADYYSDVWSSVDYEGDYWGQGTQVTVSS | low polyreactivity
QVQLVESGGGLVQAGGSLRLSCAASGSTFWLYAMGWYRQAPGKERELVATISERGGSTYYADSVKGRFTISRDNAKNTVYLQMNSLKPEDTAVYYCAADQFHYPRGRRYDYWGQGTQVTVSS | low polyreactivity
QVQLVESGGGLVQAGGSLRLSCAASGSTFWNYAMGWYRQAPGKERELVASIDSSDGRTYYADSVKGRYTISRDNAKTTVYVQMNSLKPEDTAAYYCAKDAYAVELRPYSKLSSRAVGYWGQGTQVTVSS | low polyreactivity
QVQLVESGGGLVQAGGSLRLSCAASGSTFWPNAMGWYRQAPGKERELVAGITTSSGSTFYAHSVKGRFTISRDNAKNTVYLQMNSLKPEDTAVYDCNARVRRRRYKYDYWGQGTQVTVSS | high polyreactivity
QVQLVESGGGLVQAGGSLRLSCAASGSTFWPYALGWYRQAPVKERELVAAITNSGGSTYYADSVKGRFTISRDNAKNTVYLQMNSLKPEDTAVYYCAVRGVIYSYTPVNSYVFWGQGTQVTVSS | low polyreactivity
QVQLVESGGGLVQAGGSLRLSCAASGSTFWPYAMGWYRQAPGKERELVAAISNGGGTKYADSVKGRFTISRDNAKNTVYLQMNSLKPEDTAVYYCAKTLWTGRAWYDYWGQGTQVTVSS | high polyreactivity
QVQLVESGGGLVQAGGSLRLSCAASGSTFWPYAMGWYRQAPGKERELVAAITSSDVNTNYADSVKGRFTISRDNAKNTVYLQMNSLKPEDTAVYYCAADQYQYDPTYGYDYWGQGTQVTVSS | low polyreactivity
QVQLVESGGGLVQAGGSLRLSCAASGSTFWSNPMGWYRQAPGKERELVAAISISDGNTYYADSVKGRFTISRDNAKNTVYLQMNSLKPDDTAVYYCATVGSEDGDPGFDYWGQGTQVTVSS | low polyreactivity
QVQLVESGGGLVQAGGSLRLSCAASGSTFWSNVMGWYRQAPGKESELVSAISYGGVTTSYADSVKGRFTISRDNAKNTVYLQKNSLKPEDTAVYYCATDYVGYYFYVSDYWGQGTQVTVSS | low polyreactivity
QVQLVESGGGLVQAGGSLRLSCAASGSTFWSYAMGWYRQAPGKEREFVAAISRSGDSTYYADSVKGRFTISRDNAKNTVYLQMNSLNPEDTAVYYCNAKLVRRSYGSYYYTYDYWGQGSQVTVSS | high polyreactivity
QVQLVESGGGLVQAGGSLRLSCAASGSTFWSYTMGWYRQAPGKERELVAAISRSGGSTYYADSVKGRFTISRDNAKNTVYLQMNSLKPEDTAVYYCAADDRYGSRYYYWGQGTQVTVSS | high polyreactivity
QVQLVESGGGLVQAGGSLRLSCAASGSTFWSYTMGWYRQAPWKERDLVARNTGRGGSTYYADSVKGRFTISRDNEKNTVYLLMNSLKTEDTAVYYCAAGGGRYGFYRFDYWRQGTQVTVSS | low polyreactivity
QVQLVESGGGLVQAGGSLRLSCAASGSTFWTNAMGWYRQAPGKERELVATITYSTGTYADSVKGRFTISRDNAKNTVYLQMNSLKPEDTAVYYCAADFWYRTVYGYFGYVYWGQGTQVTVSS | low polyreactivity
QVQLVESGGGLVQAGGSLRLSCAASGSTFWVNVMGWYRQAPGKERELVAAITTGSSPYYADSVKGRFTISRDNAKNTVYLQMNSLKPEDTAVYYCNVFQGTRYGYWGQGTQVTVSS | low polyreactivity
QVQLVESGGGLVQAGGSLRLSCAASGSTFWWNTMGWYRQAPGKESELVADIRTSGGGTYYADSVKGRFTISRDNAKNTVYLQMNSLKPEDTAVYYCNADPKWEMGSWGQGTQVTVSS | low polyreactivity
QVQLVESGGGLVQAGGSLRLSCAASGSTFWYNAMGWYRQAPGKERELVAAISRSGATTYYADSVKGRFTISRDNAKNTVYLQMNSLKPEDTAVYYCNAVISPSSYVRNSDYWGQGTQVTVSS | low polyreactivity
QVQLVESGGGLVQAGGSLRLSCAASGSTFWYNAMGWYRQAPGTEREFVAAISSRGGNTFYADSVKGRFTISRDNAKNTVYLQMNSLKPEDTAVYYCDARFNRPYDYWGQGTQVTVSS | low polyreactivity
QVQLVESGGGLVQAGGSLRLSCAASGSTFWYNDMGWYRQAPGKETELVASISWSGGDTYYADSVKGRFTISRDNAKNTVYLQMNSLKPEDTAVYYCAKGNNWISRLMDYWGQGTQVTVSS | low polyreactivity
QVQLVESGGGLVQAGGSLRLSCAASGSTFWYYAMGWYRQAPGKERELVAAISRGGNTYYADSVKGRFTISRDNAKNTVYLQMNSLKPEDTAVYYCAARVHYWYPSTGHHYWGQGTQVTVSS | high polyreactivity

Sequence | polyreactivity (PSR sort gate)
QVQLVESGGGLVQAGGSLRLSCAASGSTFWYYAMGWYRQAPGKERELVAAITSGDSTYYADSVKGRFTISRDNAKNTVYLQMNSLKPEDTAVYYCAADLPWEDGYYFYSGYTEYDYWGQGTQVTVSS | low polyreactivity
QVQLVESGGGLVQAGGSLRLSCAASGSTFWYYAMGWYRQAPGKERELVADITYSGVSTYYADSVKGRFTISRDNAKNTVYLQMNSLKPEDTAVYYCNADWGSVNGYSGYYYWGQGTQVTVSS | low polyreactivity
QVQLVESGGGLVQAGGSLRLSCAASGSTFWYYTMGWYRQAPGKERELVAAISKSGTNTYYADSVKGRFTISRDQAKNTVYLQMNSLKPEDTAVDYCNALTKTGTPPDYDYWGQGTQVTVSS | high polyreactivity
QVQLVESGGGLVQAGGSLRLSCAASGSTFWYYVMGWYRQAPGKERELVAAISTRGDSTYYADSVKGRFTISRDNAKNTVYLQMNSLKPEETAVYYCAKYRQSSGRVRFDYWGQGTQVTVSS | low polyreactivity
QVQLVESGGGLVQAGGSLRLSCAASGSTFYANAMGWYIQPPGKERELVAAISRSGGRTYYADSVKGRFTISRDTAKKTVYLQMNSLKTEDNSVYYCAKAYHHSEFDYWGQGTQVTVSS | high polyreactivity
QVQLVESGGGLVQAGGSLRLSCAASGSTFYANAMGWYRQAPGKERELVATINRRGNKYYADSVKGRFTISRDHAKNTVYLQMNSLKPEDTAVYYCAADAWVGWHDEYDYWGQGTQVTVSS | low polyreactivity
QVQLVESGGGLVQAGGSLRLSCAASGSTFYANLMGWYRQAPGKEWEFVAAIDGSGGRTYYADSVKGRFTISRDNAKNTVYLQMNSLKPEVTAVYYCAKKRIVPVIQFGRDYNYWGQGKQVTVSS | high polyreactivity
QVQLVESGGGLVQAGGSLRLSCAASGSTFYANVMGWYRQAPGKERELVAAIRWSGSSTYYADSVKGRFTISRDNAKNTVYLQMNSLKPEDTAVYYCNARYDFSYDYWGQGTQVTVSS | low polyreactivity
QVQLVESGGGLVQAGGSLRLSCAASGSTFYASVMGWYRQAPGKERELVAGITWYGGSTYYADSVKGRFTISRDNAKNTVYLQMNSLKPEDTAVYYCAADYYNTYGYDYCGQGTQVTVSS | low polyreactivity
QVQLVESGGGLVQAGGSLRLSCAASGSTFYAYAMGWYRQAPGKERELVAAISGSGGRTYYADSVKGRFTISRDNAKNTVYLQMNSLKPEDTAVYYCAASLTSRLPDPPRYYWGQGTQVTVSS | high polyreactivity
QVQLVESGGGLVQAGGSLRLSCAASGSTFYAYAMGWYRQAPGKERELVAAISSDGSTNYADSVKGRFTISRDNAKNTVYLQMNSLKPEDTAVYYCAADDNGAWVRMDYWGQGTQVTVSS | low polyreactivity
QVQLVESGGGLVQAGGSLRLSCAASGSTFYAYAMGWYRQAPGKERELVAGISKRVGRTYYADSVKGRFTISRDNAKNTVYLQMNSLKPEDTAVYYCNADVYAYPATWLDYWGQGTQVTVSS | high polyreactivity
QVQLVESGGGLVQAGGSLRLSCAASGSTFYAYTMGWYRQAPGKEREFVAAISKSGGSTYYADSVKGRFTISRDNAKNTVYIQMNSLKPEDTAVYYCAARVYYRYDWGQGTQVTVSS | high polyreactivity
QVQLVESGGGLVQAGGSLRLSCAASGSTFYDNTMGSYRQAPGKERELVAAITGTGGNTYYADSVKGRFTISRDNAKNTVYLQMNSLKPEDTAVYYCNRVPVYYYRYGYWGQGTQVTVSS | low polyreactivity
QVQLVESGGGLVQAGGSLRLSCAASGSTFYDYAMGWYRQAPGKERELVAAISQSGGSTYYADSVKGRFTISRDNAKNTVYLQMNSLKPEDTAVYYCAADSGYSLYDYWGQCTQVTVSS | low polyreactivity
QVQLVESGGGLVQAGGSLRLSCAASGSTFYDYAMGWYRQAPGTEREFVAAISGSAGSTYYADSVKGRFTISRDNAKNTVYLQMNSLKPEDTAVYYCATDYGWEDYNYWGQGTQVTVSS | low polyreactivity
QVQLVESGGGLVQAGGSLRLSCAASGSTFYDYAMGWYRQAPWKERELVAAITSGGSTYADSVKGRFTISRYNAKNTVYLQMNSLKPEDTAVYYCNKDFVVEYWWHHVYVYYYLGDYWGQGTQVTVSS | low polyreactivity
QVQLVESGGGLVQAGGSLRLSCAASGSTFYENTMGWYRQATGKERELVAAISFRGGSTYYADSVKGRFTISRDNAKNTVYLQMNSLKPEDTAVYYCNADDSPVPSIRFDYWGQGTQVTVSS | low polyreactivity
QVQLVESGGGLVQAGGSLRLSCAASGSTFYEYAMGWYRQAPGKERELVATINWS | low polyreactivity
QVQLVESGGGLVQAGGSLRLSCAASGSTFYFNAMGWSRQAPGKERELVAAIDWSGGSTYYADSVKGRFTISRDNAKNTVYLQMNSLKPEDTAVYYCITVPNRARISTLYGYDYWGQGTQVTVSS | low polyreactivity
QVQLVESGGGLVQAGGSLRLSCAASGSTFYFNAMGWYRQAPGKERELVADINYSGTSTYYADSVKGRFTISRDNAKNTVYLQMTSLKPEDTAVYYCAKSLPSSNTSTSYDYWGQGTQVTVSS | low polyreactivity
